Reference: the DeepSol protein solubility set

test: soluble on expression in E. coli; label from the status in PepcDB or PDB records

Row | Sequence | soluble on expression in E. coli
1 | MQMPRRFNTYCPHCNEHQEHEVEKVRSGRQTGMKWIDRQRERNSGIGNDGKFSKVPGGDKPTKKTDLKYRCGECGKAHLREGWRAGRLEFQE | soluble
2 | MSLSILNSNAALRGLLDQHLADLSREEGLAPETIRDAIERGTMVLLGNPSHPSLRPILVGQPARVKVNANIGTSPMRNHPECEMQKVDAAVEAGADTIMDLSIAGDLDAIRREMLARCPLPLGTVPLYSVAQKYIECGKDPALIDPEEIFAEIEKQAQQGVDFMTVHCGLTRRGAEWAAKGDRLLGIVSRGGSILARWMLRHDRENPLLTGYDRILDIARKYNVTLSLGDGLRPGAGADAGDAAQWEEVMVLGQLAKRGLEAGVQCMIEGPGHVPMNEVEAQIVGIKKLTHGAPLYVLGPLVIDSCPGYDHIAGAIGGALAVRSGVDFLCYLTPAEHLTLPTREDVRAGVIASRIAAQAGEVALGRPHALARELGMGKARKALDWPGMERHALDAAMVDERRGEHRNEEECAMCGKFCAVKMLRDDPQGAFEGHHHHHH | soluble
3 | KPEPTNSSVEVSPDIYQQVRDELKRASVSQAVFARVAFNRTQGLLSEILRKEEDPRTASQSLLVNLRAMQNFLNLPEVERDRIYQDER | soluble
4 | KMPSPYSHKEFVKEIAPTAQKLSKIYGVRSSIIIGQAALDSHFGSTLLASKYHNLFSIEASPGQGAVRLKSHEYKNGRWQEVTNRYLVYESWKESLYDYMAILHGNKIWDKALYTTMMTSSGYKTVARALQAAGFNSDPNYADKLIAVIEENNL | soluble
5 | MMTMMATFLDVIDQKARSHYDEGKGLALRSLDPEADAAQLQQWFSMDYARFWSMQDSSVHQVRDFYTALCSSGHAGAWLGLHHGRAAFLVECYDPARDQVGEHYCVRPGDLGMHLLIAPPTEHIPGFSRAVFALVMRFMFDRLHAARVVVEPDVNNTKIHALNLSMGFVYAGLARFREKTASLAFCTRAQFEQAQRQELTQ | not soluble
6 | PKAPVTGYVRFLNERREQIRTRHPDLPFPEITKMLGAEWSKLQPAEKQRYLDEAEKEKQQYLKELWAYQQSEAYKVCTE | soluble
7 | MSLKITRIDIHRTDLPVRGGVYRLSGGREYHSYDATIVSIETDTGLTGWGESTPFGSTYIAAHAGGTRAALELLAPAILGMDPRQHDRIWDRMRDTLKGHRDARAALDIACWDIAAQAAGLPLCDMTGGRVAGPVPVISSIGGDTPEAMRAKVARHRAQGFKGHSIKIGASEAEGGPALDAERITACLADRQPGEWYLADANNGLTVEHALRMLSLLPPGLDIVLEAPCASWAETKSLRARCALPLLLDELIQTETDLIAAIRDDLCDGVGLKVSKQGGITPMLRQRAIAAAAGMVMSVQDTVGSQISFAAILHLAQSTPRHLLRCALDTRAMTTAELAEIDAPLRDGGASAPSDPGLGLRVNRDALGTPVKTFGDPIEGHHHHHH | soluble
8 | DERLLAREVQKMRFRRSTYSSPQPATQQPANGSERKNDSDNLVGAENHSAETPTDNRSAEVEQPYYPAKYEEELLRLIIRYGERKLLIYRHEEGAEKQTPSEVALAYYIKSDLNADGVDIGTDVFRQILDEAAEQSFDSGFVAAKYFRDHPNAQISHIAVELLTNRYALSRIHYGKGDESNAEEDLQMRVERELLTIKNVFIQVQIRALQKEIAQAQKAGDIELQLEIMNELRSMNEMKSELAHRLGDRTVLP | not soluble
9 | MIPFVWGICMPTLRNPQYRAFARRKLYRRQDGKCFYCHRDLTTKKTGELALTIEHRKAKMKGGTDDLKNLVAACWHCNHHRGEQMNATKQRKEAKALSRQRRMLARDCRSKADSQADGKAHEQLASKVEGNGANRTPSVHTARSEGLGLEHHHHHH | soluble
10 | MGSDKIHHHHHHMLRSLPVLMYHYISRVHDSIAVHPDQFEDHCRGMAAEGWRGVSLAEAEAFLAEGTPLPERSVLITFDDGFLDNYVHALPILEKYGHCGTVFATAGKLETAAGLRPTLADVWSGRIPAEGLPRVDAPFVKHRLGFDERHDLFLNWDEARHAESTGTLAVAAHSMWHRSVFTSASYEGFYAPQRRGRTFDRVEGDVPWGLPRFKVGPALRERAFLPSAELLHAIRETVPQDKDGAYAFFSDTAATERLMHTVEAFGADGLGRFETDAERTERMYREMRDCKQLLENELGHPVTTFCWPWGAFCDEALAIGRELGFRVFLTTLMGSNPPSAPLAVHRFKAKAKPWSWLRLRLHVYSRPLLANLYARMRL | not soluble
